Assay results from publication PMC10200060, “Inhibition of DAMP actions in the tumoral microenvironment using lactoferrin-glycyrrhizin conjugate for glioblastoma therapy” (Biomaterials Research, 2023).

What was measured:
[1] = biological target: T1, human recombinant HMGB1 protein (Homo sapiens, UniProt P09429); assay: SPR binding affinity against HMGB1
T1 construct: purchased Abcam
T1 sequence (P09429 1-215): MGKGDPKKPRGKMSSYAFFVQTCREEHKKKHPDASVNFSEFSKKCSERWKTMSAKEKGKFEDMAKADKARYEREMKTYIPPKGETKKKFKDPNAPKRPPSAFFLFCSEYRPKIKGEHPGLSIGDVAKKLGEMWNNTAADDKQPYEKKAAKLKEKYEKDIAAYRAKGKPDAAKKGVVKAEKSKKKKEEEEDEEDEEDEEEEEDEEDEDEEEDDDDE
Experimental: To confirm the binding affinity of Lf-GL to HMGB1, Surface Plasmon Resonance (SPR) was conducted at WoojungBSC (Korea). The Reichert SR7500DC system (Reichert technologies, NA, USA) and Scrubber2 software (Biologic software, FRA) were used, and a CMDH chip (Cat #: 13,206,066, Reichert technologies) was used for immobilization of the human recombinant HMGB1 protein (Abcam). HMGB1 protein was used as a ligand, and the analytes were HMGB1 antibody (Abcam), GL, Lf and Lf-GL conjugate. The immobilization buffer was S.A. (10 × 10^–3 M, pH 4.5), and the running buffer was PBS (pH 7.4). The flow rate of the analyte was 30 μL min^−1. The association and dissociation time were 3 min each, and measurements were conducted at room temperature. Results are expressed in response units (RU) over time.
Fig. S5. Binding affinity against HMGB1. Surface Plasmon Resonance (SPR) was conducted at WoojungBSC (Korea). The Reichert SR7500DC system (Reichert technologies, NA, USA) and Scrubber2 software(Biologic software, FRA) were used and the CMDH chip (Cat #: 13206066, Reichert technologies) was used for immobilization of the human recombinant HMGB1 protein (Abcam). HMGB1 protein was used as ligand and analytes were HMGB1 antibody (Abcam), GL, Lf and Lf-GL conjugate. Immobilization buffer was 10 mM S.A. (pH 4.5) and running buffer was 1× PBS. The flow rate of the analyte was 30 μL min^-1. The association and dissociation time were 3 min each and conducted at room temperature. Results are expressed in response units (RU) over time.

HMGB1 = HMGB1 ELISA of U87MG culture medium; type: cell-based, human; conditions: 50 μM GL equivalent, 48 h (control 131.8 ± 11.4)
Experimental: U87MG cells were seeded in 100 mm-cell culture dishes (2.2 × 10^6 cells per dish) and treated with GL, Lf, or Lf-GL (50 × 10^–6 M GL equivalent concentration) for 48 h. After incubating, cells were collected using a cell scrapper and were centrifuged for 3 min at 150 × g. Supernatant was collected as cell culture medium, and pellets were washed with cold PBS twice and transferred into a microcentrifuge tube. Tubes were centrifuged, and then pellets were resuspended in 500 μL 1X hypotonic buffer and incubated on ice. Then, 25 μL of NP40 was added and the mixture was agitated using a vortex mixer at the highest setting. Homogenates were centrifuged for 10 min at 842 × g at 4℃. Supernatant was collected as the cytoplasmic fraction, and pellets were resuspended in cell extraction buffer (50 μL) and were incubated for 30 min on ice with vortexing at 10 min intervals. Then, homogenates were centrifuged for 30 min at 14,000 × g at 4℃. Supernatant was collected as the nuclear fraction. The amount of HMGB1 in the samples was measured using a HMGB1 ELISA kit (Abbkine), and absorbance was measured at 450 nm in a micro-plate reader. A DNA assay (Quant-iT™ dsDNA Assay Kit, Invitrogen) was also conducted to express HMGB1 concentrations in equivalent amounts of DNA.

[2] = GBM targeted-GL by HPLC in brain homogenate; type: in vivo, orthotopic GBM model mice
Experimental: Orthotopic GBM mice model mice were used for quantification of GBM targeting efficacy. The brain tissue was homogenized in deionized water at a 33.3 w/v (%) using a FastPrep-24 5G (MP biomedical, South Korea). The GL were added to pooled brain homogenate to obtain seven-point calibration curves with a range of 10–1000 ng mL^−1. Then, homogenate (50 μL) was mixed with methanol (100 μL). […] Thereafter, supernatants (100 μL) were mixed with mobile phase solution (900 μL), then filtered with a 0.22 μm syringe filter. Samples were collected in a 2 mL HPLC vial (Screw top vial, Waters, USA) and analyzed by HPLC at 254 nm. […] Mice were sacrificed and brain tissues were collected 10 min after the GL and Lf-GL injection. The samples for quantification were also conducted using the same process as GL standard preparation.

CD31 = assay: Immunofluorescence staining of CD31 in GBM tissue; type: in vivo, Balb/c nude mice; conditions: GBM mice, daily i.v., 14 days (control MFI 14.7 ± 1.4)
Text: After two weeks, mice were sacrificed, and the brains were harvested and fixed with paraformaldehyde (4%). Then, tissue processing was automatically conducted using a Leica TP1020 semi-enclosed Benchtop Tissue Processor (Leica Biosystems, Wetzlar, Hesse, Germany), followed by embedding in paraffin blocks. Paraffin blocks were sliced into 5 μm thick slices using a Leica RM2145 Microtome (Leica Biosystems). Nissl staining was used to stain brain tissue slides with pre-warmed 0.1% Cresyl Violet Stain Solution (Abcam). TUNEL assays were conducted following the manufacturer’s instructions. For immunofluorescence staining; anti-HMGB1 antibody (Abcam), anti-Ki67 antibody (Abcam), anti-CD31 antibody (Abcam), and anti-VEGF antibody (Abcam) were used as primary antibodies, and goat anti-rabbit IgG-H&L Alexa Fluor 488 and goat anti-rabbit IgG H&L Alexa Fluor 647 were used as secondary antibodies, followed by DAPI mounting.

[3] = SPR, HMGB1 immobilized, PBS pH 7.4, room temperature

B1: Lf-GL: lactoferrin-glycyrrhizin conjugate with ligation ratio Lf:GL 1:10, used in further experiments (conjugate, UniProt P24627 20-708, looked up)
Lactotransferrin: APRKNVRWCTISQPEWFKCRRWQWRMKKLGAPSITCVRRAFALECIRAIAEKKADAVTLDGGMVFEAGRDPYKLRPVAAEIYGTKESPQTHYYAVAVVKKGSNFQLDQLQGRKSCHTGLGRSAGWIIPMGILRPYLSWTESLEPLQGAVAKFFSASCVPCIDRQAYPNLCQLCKGEGENQCACSSREPYFGYSGAFKCLQDGAGDVAFVKETTVFENLPEKADRDQYELLCLNNSRAPVDAFKECHLAQVPSHAVVARSVDGKEDLIWKLLSKAQEKFGKNKSRSFQLFGSPPGQRDLLFKDSALGFLRIPSKVDSALYLGSRYLTTLKNLRETAEEVKARYTRVVWCAVGPEEQKKCQQWSQQSGQNVTCATASTTDDCIVLVLKGEADALNLDGGYIYTAGKCGLVPVLAENRKSSKHSSLDCVLRPTEGYLAVAVVKKANEGLTWNSLKDKKSCHTAVDRTAGWNIPMGLIVNQTGSCAFDEFFSQSCAPGADPKSRLCALCAGDDQGLDKCVPNSKEKYYGYTGAFRCLAEDVGDVAFVKNDTVWENTNGESTADWAKNLNREDFRLLCLDGTRKPVTEAQSCHLAVAPNHAVVSRSDRAAHVKQVLLHQQALFGKNGKNCPDKFCLFKSETKNLLFNDNTECLAKLGGRPTYEEYLGTEYVTAIANLKKCSTSPLLEACAFLTR
modifications: glycyrrhizin conjugate
[1]; SPR, HMGB1 immobilized
  KD, equilibrium dissociation constant (KD = Kd Ka^−1): 23.1 ± 0.1 nM
[1]; [3]
  Ka, association rate constant: (2.64±0.01)·10^4 M^-1s^-1
  Kd, dissociation rate constant: (3.11±0.02)·10^-4 M^-1s^-1
[1]; ratio of KD values
  Affinity for HMGB1 higher than that of HMGB1 antibody: 45 fold
HMGB1
  HMGB1 released into the medium of U87MG cells: 74.0 ± 0.9 ng/mL
[2]; brain/GBM accumulation
  Accumulated amount higher than GL without Lf conjugation: twofold
[2]; orthotopic GBM mice, i.v. GL equivalent 50 mg kg^−1, 10 min after injection
  GL concentration detected in brain homogenate: 19.3 ± 1.6 µg/mL
CD31
  Decrease of MFI of CD31: sevenfold
